Data on five proteins can be found in PMC8496131, “Accessing Chemo- and Regioselective Benzylic and Aromatic Oxidations by Protein Engineering of an Unspecific Peroxygenase” (ACS Catalysis, 2021).

One may read the Km as the concentration of substrate that gives half-maximal velocity. Usually kcat stands for the maximal rate divided by the concentration of active sites. The term kcat/Km denotes the turnover number divided by the Michaelis constant.

Substrate in the data set: O=[N+]([O-])c1ccc2c(c1)OCO2
The data set can be described thus: purified protein. It counts as biochemical, Thermothelomyces thermophilus. The note with it: H2O2 as saturating co-substrate, standard deviation <18%.

B1: MthUPO (Thermothelomyces thermophilus ATCC 42464) (protein)
chain: AGFDTWSPPGPYDVRAPCPMLNTLANHGFLPHDGKDITREQTENALFEALHINKTLASFLFDFALTTNPKNTSTFSLNDLGNHNILEHDASLSRADAYFGNVLQFNQTVFDETKTYWEGDTIDLRMAAKARLGRIKTSQATNPTYSMSELGDAFTYGESAAYVVVLGDKESRTVKRSWVEWFFEHEQLPQHLGWKRPAASFEEEDLNSSMEEIEKYTKELEGSNSTSGSQKHRRRLPRRRAHFGF
notes: secreted from S. cerevisiae, purified; 245 AA plus C-terminal TwinStrep-GFP11 tag; heme-thiolate
On to B1, for which, for the setting “20 nM enzyme”, the Km came out at 386 µM, the kcat amounted to 7.1 s⁻¹ and the catalytic efficiency (kcat/Km) was 19000 M⁻¹ s⁻¹.

B2: MthUPO (Thermothelomyces thermophilus ATCC 42464; L76F) (protein)
chain: AGFDTWSPPGPYDVRAPCPMLNTLANHGFLPHDGKDITREQTENALFEALHINKTLASFFFDFALTTNPKNTSTFSLNDLGNHNILEHDASLSRADAYFGNVLQFNQTVFDETKTYWEGDTIDLRMAAKARLGRIKTSQATNPTYSMSELGDAFTYGESAAYVVVLGDKESRTVKRSWVEWFFEHEQLPQHLGWKRPAASFEEEDLNSSMEEIEKYTKELEGSNSTSGSQKHRRRLPRRRAHFGF
notes: as for B1
On to B2, for which, where the note is “5 nM enzyme”, the Km came to 110 µM, the catalytic constant (kcat) is 2.9 s⁻¹ and the kcat/Km was found to be 27000 M⁻¹ s⁻¹.

B3: MthUPO (Thermothelomyces thermophilus ATCC 42464; A177F/L76F/S175G) (protein)
chain: AGFDTWSPPGPYDVRAPCPMLNTLANHGFLPHDGKDITREQTENALFEALHINKTLASFFFDFALTTNPKNTSTFSLNDLGNHNILEHDASLSRADAYFGNVLQFNQTVFDETKTYWEGDTIDLRMAAKARLGRIKTSQATNPTYSMSELGDAFTYGEGAFYVVVLGDKESRTVKRSWVEWFFEHEQLPQHLGWKRPAASFEEEDLNSSMEEIEKYTKELEGSNSTSGSQKHRRRLPRRRAHFGF
notes: as for B1
For the protein B3, where the note is “20 nM enzyme”, the Km was found to be 422 µM, the kcat stood at 132 s⁻¹ and the kcat/Km stood at 310000 M⁻¹ s⁻¹.

B4: MthUPO (Thermothelomyces thermophilus ATCC 42464; F170A/F75Q/L76M/S175G) (protein)
chain: AGFDTWSPPGPYDVRAPCPMLNTLANHGFLPHDGKDITREQTENALFEALHINKTLASQMFDFALTTNPKNTSTFSLNDLGNHNILEHDASLSRADAYFGNVLQFNQTVFDETKTYWEGDTIDLRMAAKARLGRIKTSQATNPTYSMSELGDAATYGEGAAYVVVLGDKESRTVKRSWVEWFFEHEQLPQHLGWKRPAASFEEEDLNSSMEEIEKYTKELEGSNSTSGSQKHRRRLPRRRAHFGF
notes: as for B1
For B4, under “20 nM enzyme”, the Michaelis constant (Km) was found to be 290 µM, the kcat stood at 59.4 s⁻¹ and the kcat/Km stood at 210000 M⁻¹ s⁻¹.

B5: MthUPO (Thermothelomyces thermophilus ATCC 42464; F75Q/L76F/S175G) (protein)
chain: AGFDTWSPPGPYDVRAPCPMLNTLANHGFLPHDGKDITREQTENALFEALHINKTLASQFFDFALTTNPKNTSTFSLNDLGNHNILEHDASLSRADAYFGNVLQFNQTVFDETKTYWEGDTIDLRMAAKARLGRIKTSQATNPTYSMSELGDAFTYGEGAAYVVVLGDKESRTVKRSWVEWFFEHEQLPQHLGWKRPAASFEEEDLNSSMEEIEKYTKELEGSNSTSGSQKHRRRLPRRRAHFGF
notes: as for B1
As for B5, for the setting “20 nM enzyme”, the Km was determined as 303 µM, the kcat was 47 s⁻¹ and the kcat/Km was 160000 M⁻¹ s⁻¹.
